One molecule from publication PMC7521798 (Molecular Biology of the Cell, 2020) can be followed below.

This assay has as its target GFP-IQGAP1 ∆GRD (1004–1237 aa deleted) (UniProt P46940 1-1657, 1004–1237 aa deleted). The assay can be described thus: co-IP.

B1: R-ras (natural protein, mouse (endogenous in NIH-3T3 and MEFs), UniProt P10833 1-218, looked up)
chain: MSSGAASGTGRGRPRGGGPGPRDPPPGETHKLVVVGGGGVGKSALTIQFIQSYFVSDYDPTIEDSYTKICTVDGIPARLDILDTAGQEEFGAMREQYMRAGNGFLLVFAINDRQSFNEVGKLFTQILRVKDRDDFPIVLVGNKADLENQRQVLRSEASSFSASHHMTYFEASAKLRLNVDEAFEQLVRAVRKYQEQELPPSPPSAPRKKDGGCPCVLL
Consider B1, for which the “fold less association with R-ras than IQGAP1, IQGAP1 ∆IQ or IQGAP1 ∆WW” value was determined as 5 fold.
